Experimental data from patent US11433139B2, “Peptide vaccines against interleukin-31” (Zoetis Services LLC, priority 2018, dated 2022).
Where no end group is shown, it is not given here.

What was measured:
mAb ZTS-361 = test: Peptide block of mAb ZTS-361 inhibition of IL-31 mediated STAT3 phosphorylation in feline FCWF-4 macrophages; format: cell-based
full length feline IL-31 = test: Cat serology study, serum titers by indirect ELISA to feline IL-31; format: in vivo; conditions: laboratory cats, 10 μg/dose s.c. days 0, 28, 56, Bay R1005 and CpG adjuvant mixture
Procedure: 2.9. Serum titers to IL-31 following immunization of laboratory cats with IL-31 feline and equine mimotopes and full length feline IL-31 protein A serology study was performed using laboratory cats like the study design described herein in section 2.3 however in this study feline and equine mimotopes were compared. Laboratory cats were subcutaneously administered the conjugated IL-31 mimotopes adjuvanted with a mixture including the glycolipid adjuvant Bay R1005 (N-(2-Deoxy-2-L-leucylamino-β-D-glucopyranosyl)-N-octadecyldodecanoylamidehydroacetate) as well as CpG oligonucleotides. A control group was included containing CRM-197 conjugated feline IL-31 (SEQ ID NO: 157; Feline_IL31_wildtype), the corresponding nucleotide sequence for which is (SEQ ID NO: 158; Feline_IL-31_wildtype) in an adjuvant mixture including the glycolipid adjuvant Bay R1005 (N-(2-Deoxy-2-L-leucylamino-β-D-glucopyranosyl)-N-octadecyldodecanoylamidehydroacetate) as well as CpG oligonucleotides. (T01). 10 μg/dose of each adjuvanted mimotope or control was administered subcutaneously on days 0, 28, and 56 (0.5 ml of a 20 μg/ml solution). Blood for serum was taken on day −14, 0 (pre-dose), 28 (pre-dose), 42, 56 (pre-dose), 70, and 84. In addition, on days 35 and 63, approximately 40 mls of blood was collected from each animal into lithium heparin tubes and processed for PBMC isolation using a standard method. […]

[1] = Pharmacokinetic profile of canine IL-31 in dogs; format: in vivo, dog; conditions: subcutaneous dose of 1.75 μg/kg, within the first hour
Procedure: A recent study was performed to determine serum IL-31 levels in cats with a presumptive diagnosis of allergic dermatitis (AD) from several different geographic regions in the USA. […] To understand the levels of canine IL-31 in a previous model development study, the pharmacokinetic profile of canine IL-31 was analyzed in dogs following administration of a subcutaneous dose of 1.75 μg/kg. […] Based on these findings it is reasonable to believe that an intravenous dose of 0.5 μg/kg feline IL-31 used in this feline model will result in a circulating amount that is far excessive to that observed in the naturally occurring disease state for dogs and cats.

[2] = Stability of cIL-31 following dialysis into PBS; format: physicochemical
From the text: The Interleukin 31 protein varies in amino acid sequence conservation among homologous species (FIGS. 1A and 1B) but is believed to have common structural architecture with other members of the type I cytokine family (Boulay et al. 2003, Immunity. August; 19(2):159-632003; Dillon et al. 2004 Nat Immunol. July; 5(7):752-60). This up-down bundle topology is significant to the mode of receptor recognition shared by these cytokines (Dillon et al. supra, Cornelissen et al. 2012 Eur J Cell Biol. June-July; 91(6-7):552-66). With variation in IL-31 protein sequence identities between different species, it is not possible to predict if antibodies raised against one species will cross-react with others given different epitope propensities and local amino acid compositions. As a consequence, multiple forms of IL-31 protein were considered for this work representing multiple species and expression systems. The canine IL-31 protein (cIL-31) was produced to use as an immunogen and a reagent to test affinity and potency of antibody hits. […] Protein concentration was determined using a bicinchoninic assay (BCA assay) with Bovine Serum Albumin (BSA) as a standard (ThermoFisher Scientific, Inc., Rockford, Ill.). […]

full length canine IL-31 = test: Dog immunogenicity study, serum titers by indirect ELISA to canine IL-31; format: in vivo; conditions: beagle dogs, 10 μg/dose s.c. days 0, 28, 56, ZA-01 adjuvant; maximum dilution 1:50,000
From the text: (§1) An immunogenicity study was undertaken to assess the ability of CRM-197-conjugated IL-31 15H05 mimotopes to generate an epitope-specific immune response driven towards the relevant region on the IL-31 protein where antibody 15H05 binds and neutralizes the cytokines ability to activate the IL-31Ra:OSMR co-receptor. The study design is depicted in FIG. 14. Purebred male beagle dogs were subcutaneously administered the conjugated IL-31_15H05 mimotopes adjuvanted with ZA-01. […] Control groups were included containing ZA-01 adjuvant CRM-197 alone (T01) and CRM-197 conjugated feline IL-31 (SEQ ID NO: 159; Feline_IL-31_E_coli), the corresponding nucleotide sequence for which is (SEQ ID NO: 160; Feline_IL-31_E_coli) in ZA-01 (T02). 10 μg/dose of each adjuvanted mimotope or control was administered subcutaneously on days 0, 28, and 56 (0.5 ml of a 20 μg/ml solution). Blood for serum was taken on day 0 (pre-dose), 7, 12, 28 (pre-dose) 35, 42, 49, 56 (pre-dose), 63, 70, 77, and 84. In addition, on days 35 and 84, approximately 40 mls of blood was collected from each animal into lithium heparin tubes and processed for PBMC isolation using a standard method. […]
(§2) Serum titers from each study day indicated in section 2.3 above were assessed for each animal. Titers were determined using an indirect ELISA where a full length IL-31 protein was used as the capture material for each respective assay. […]

full length equine IL-31 = test: Dog immunogenicity study, serum titers by indirect ELISA to equine IL-31; format: in vivo; conditions: beagle dogs, 10 μg/dose s.c. days 0, 28, 56, ZA-01 adjuvant
From the text: as §1, §2

full length human IL-31 = test: Dog immunogenicity study, serum titers by indirect ELISA to human IL-31; format: in vivo, canine; conditions: beagle dogs, 10 μg/dose s.c. days 0, 28, 56, ZA-01 adjuvant
From the text: as §1, §2

[3] = test system: full length feline IL-31 protein; test: Dog immunogenicity study, serum titers by indirect ELISA to feline IL-31; format: in vivo, canine; conditions: beagle dogs, 10 μg/dose s.c. days 0, 28, 56, ZA-01 adjuvant; maximum dilution 1:50,000
From the text: as §1, §2

Sequence of mAb ZTS-361 (as listed by the source): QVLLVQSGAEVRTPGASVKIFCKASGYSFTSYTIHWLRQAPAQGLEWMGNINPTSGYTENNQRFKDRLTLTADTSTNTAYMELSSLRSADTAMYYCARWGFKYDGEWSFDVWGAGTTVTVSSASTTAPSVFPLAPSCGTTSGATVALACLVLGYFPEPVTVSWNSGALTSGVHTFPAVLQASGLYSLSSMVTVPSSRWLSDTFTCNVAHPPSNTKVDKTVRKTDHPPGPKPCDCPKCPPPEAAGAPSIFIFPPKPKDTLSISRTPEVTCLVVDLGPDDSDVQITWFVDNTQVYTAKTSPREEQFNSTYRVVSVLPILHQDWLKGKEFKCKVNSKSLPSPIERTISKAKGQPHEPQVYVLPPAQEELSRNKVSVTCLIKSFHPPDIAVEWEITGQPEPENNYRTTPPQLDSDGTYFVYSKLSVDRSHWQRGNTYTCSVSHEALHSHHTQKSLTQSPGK
Sequence of mAb ZTS-361 (as listed by the source): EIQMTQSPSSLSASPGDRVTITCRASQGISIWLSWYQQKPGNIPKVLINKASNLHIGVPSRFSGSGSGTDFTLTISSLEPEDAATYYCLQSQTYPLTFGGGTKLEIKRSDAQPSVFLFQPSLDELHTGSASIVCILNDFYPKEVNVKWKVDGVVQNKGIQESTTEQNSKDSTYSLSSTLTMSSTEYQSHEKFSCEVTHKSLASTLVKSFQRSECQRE
Sequence of full length equine IL-31 (as listed by the source): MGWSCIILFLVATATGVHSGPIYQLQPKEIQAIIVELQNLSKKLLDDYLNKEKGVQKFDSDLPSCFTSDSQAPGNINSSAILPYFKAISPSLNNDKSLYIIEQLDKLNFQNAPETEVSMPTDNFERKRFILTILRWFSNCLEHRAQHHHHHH

constrained feline IL-31 15H05 mimotope, N-AKVSMPADNFERKNFILT-C plus N and C terminal Cysteines, mT2a (CAKVSMPADNFERKNFILTC; also: constrained via terminal cysteines, mode not given here) [ZTS-563]
IC50, conjugated peptide (mAb ZTS-361; CRM197 conjugated, co-incubated 1 hour with 0.2 μM mAb ZTS-361, FCWF-4 cells): 3.384 µg/mL | decline of potency following conjugation (mAb ZTS-361; conjugated vs unconjugated): approximately 3 fold | feline antibody titers to full length feline IL-31 (full length feline IL-31): modest response

B1: canine IL-31: recombinant canine IL-31 protein (SEQ ID NO: 155) produced in CHO cells (protein, listed as Canis familiaris)
chain: MLSHTGPSRFALFLLCSMETLLSSHMAPTHQLPPSDVRKIILELQPLSRGLLEDYQKKETGVPESNRTLLLCLTSDSQPPRLNSSAILPYFRAIRPLSDKNIIDKIIEQLDKLKFQHEPETEISVPADTFECKSFILTILQQFSACLESVFKSLNSGPQ
peak plasma levels, maximum [1]: about 30 ng/ml | stability, proteolysis ([2]; PBS, several days at 4° C.): no proteolysis was observed | stability, precipitation ([2]; following dialysis into PBS): No precipitation was observed

B2: feline IL-31 CRM: CRM-197 conjugated feline IL-31 (SEQ ID NO: 159; Feline_IL-31_E_coli), control group T02 (conjugate)
chain: MRGSHHHHHHGSSHMAPAHRLQPSDIRKIILELRPMSKGLLQDYLKKEIGLPESNHSSLPCLSSDSQLPHINGSAILPYFRAIRPLSDKNTIDKIIEQLDKLKFQREPEAKVSMPADNFERKNFILAVLQQFSACLEHVLQSLNSGPQ
modifications: conjugated to CRM-197 carrier; Amino acid sequence representing feline IL-31 protein with N-terminal His tag
canine antibody titers to full length canine IL-31 (full length canine IL-31): transient CRAR | canine antibody titers (CRAR) to full length equine IL-31 (full length equine IL-31): negligible | canine antibody titers (CRAR) to full length human IL-31 (full length human IL-31): minor | canine antibody titers to full length feline IL-31 [3]: moderate and sustained antibody response
